Reference: PMC10786891, “Massively parallel profiling of RNA-targeting CRISPR-Cas13d”
Substitutions are numbered along the chain they refer to. In names and notes the source's numbering stands.

T1: EsCas13d, nuclease-dead (Eubacterium siraeum, UniProt B0MS50, R295A;H300A;R849A;H854A)
T1 sequence: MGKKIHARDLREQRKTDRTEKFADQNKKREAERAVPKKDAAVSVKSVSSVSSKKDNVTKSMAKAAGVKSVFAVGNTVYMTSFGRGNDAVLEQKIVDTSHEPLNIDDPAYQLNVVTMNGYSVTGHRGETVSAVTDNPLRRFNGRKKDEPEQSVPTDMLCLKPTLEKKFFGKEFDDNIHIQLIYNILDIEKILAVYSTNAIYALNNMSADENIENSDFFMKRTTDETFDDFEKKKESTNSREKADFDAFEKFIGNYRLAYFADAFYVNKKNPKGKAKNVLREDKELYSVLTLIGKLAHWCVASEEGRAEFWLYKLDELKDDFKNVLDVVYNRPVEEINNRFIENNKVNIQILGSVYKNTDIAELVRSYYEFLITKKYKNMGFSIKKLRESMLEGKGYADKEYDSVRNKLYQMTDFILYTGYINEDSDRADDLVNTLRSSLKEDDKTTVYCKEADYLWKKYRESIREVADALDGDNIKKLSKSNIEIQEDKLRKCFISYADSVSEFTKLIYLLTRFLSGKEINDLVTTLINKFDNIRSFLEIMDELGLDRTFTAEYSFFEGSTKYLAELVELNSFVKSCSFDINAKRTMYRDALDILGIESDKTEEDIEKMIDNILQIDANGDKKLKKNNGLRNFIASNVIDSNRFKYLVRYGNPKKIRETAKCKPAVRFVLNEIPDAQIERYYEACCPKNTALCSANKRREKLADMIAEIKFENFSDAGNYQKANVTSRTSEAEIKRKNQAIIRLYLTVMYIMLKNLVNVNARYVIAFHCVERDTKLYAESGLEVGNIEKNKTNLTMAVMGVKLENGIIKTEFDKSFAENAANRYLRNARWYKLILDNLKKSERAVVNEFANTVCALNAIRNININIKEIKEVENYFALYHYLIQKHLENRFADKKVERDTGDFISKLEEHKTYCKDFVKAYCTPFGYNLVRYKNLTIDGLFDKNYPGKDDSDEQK

B1: target 1 insC 3' of 8,insG 3' of 8 (mixed)
RNA 1: CACCCGUGCAAAAAUGCAGGGGUCUAAAACUGAGCGGAUAACCUCUCUAUGG
RNA 2: GGGAAUGGAUCCACAUCUACGAAUUCGUACCAUAGAGAGGUUAUCGCCGCUCACCGAGAUCGGAAGAGCACACGU
B2: target 1 A1G,C6G (mixed)
RNA 1: B1 RNA 1
RNA 2: GGGAAUGGAUCCACAUCUACGAAUUCGUACCAUAGAGAGGUUAUCGGCUCGCCGAGAUCGGAAGAGCACACGU
B3: target 1 insC 3' of 17,insC 3' of 15 (mixed)
RNA 1: B1 RNA 1
RNA 2: GGGAAUGGAUCCACAUCUACGAAUUCGUACCAUAGCAGCAGGUUAUCCGCUCACCGAGAUCGGAAGAGCACACGU
B4: target 1 insU 3' of 2,insA 3' of 2 (mixed)
RNA 1: B1 RNA 1
RNA 2: B1 RNA 2 with G46C, C47G, G49U, C52A
B5: target 2 MT 5'PFS ACU 3'PFS ACU (mixed)
RNA 1: CACCCGUGCAAAAUUGCAGGGGUCUAAAACCUUCUCCAAAUUGUUUCAUCCU
RNA 2: GGGAAUGGAUCCACAUCUACGAAUUCACUAGGAUGAAACAAUUUGGAGAAGACUAGAUCGGAAGAGCACACGU
B6: target 2 MT 5'PFS AGC 3'PFS CCA (mixed)
RNA 1: B5 RNA 1
RNA 2: B5 RNA 2 with C28G, U29C, A52C, U54A
B7: target 2 MT 5'PFS CCG 3'PFS CCC (mixed)
RNA 1: B5 RNA 1
RNA 2: B5 RNA 2 with A27C, U29G, A52C, U54C
B8: target 2 MT 5'PFS GGG 3'PFS UCC (mixed)
RNA 1: B5 RNA 1
RNA 2: B5 RNA 2 with A27G, C28G, U29G, A52U, U54C
B9: target 2 MT 5'PFS AUG 3'PFS CAA (mixed)
RNA 1: B5 RNA 1
RNA 2: B5 RNA 2 with C28U, U29G, A52C, C53A, U54A
B10: target 2 MT 5'PFS CAU 3'PFS AUU (mixed)
RNA 1: B5 RNA 1
RNA 2: B5 RNA 2 with A27C, C28A, C53U
B11: target 2 MT 5'PFS GAA 3'PFS CAU (mixed)
RNA 1: B5 RNA 1
RNA 2: B5 RNA 2 with A27G, C28A, U29A, A52C, C53A
B12: target 2 MT 5'PFS GAA 3'PFS CAC (mixed)
RNA 1: B5 RNA 1
RNA 2: B5 RNA 2 with A27G, C28A, U29A, A52C, C53A, U54C
B13: target 2 MT 5'PFS GCG 3'PFS CGU (mixed)
RNA 1: B5 RNA 1
RNA 2: B5 RNA 2 with A27G, U29G, A52C, C53G
B14: target 2 MT 5'PFS GGG 3'PFS UCA (mixed)
RNA 1: B5 RNA 1
RNA 2: B5 RNA 2 with A27G, C28G, U29G, A52U, U54A
B15: target 2 MT 5'PFS AAA 3'PFS UUU (mixed)
RNA 1: B5 RNA 1
RNA 2: B5 RNA 2 with C28A, U29A, A52U, C53U
B16: target 2 MT 5'PFS AUU 3'PFS CGU (mixed)
RNA 1: B5 RNA 1
RNA 2: B5 RNA 2 with C28U, A52C, C53G
B17: target 2 MT 5'PFS GUU 3'PFS CCA (mixed)
RNA 1: B5 RNA 1
RNA 2: B5 RNA 2 with A27G, C28U, A52C, U54A
B18: target 2 MT 5'PFS AUG 3'PFS CAU (mixed)
RNA 1: B5 RNA 1
RNA 2: B5 RNA 2 with C28U, U29G, A52C, C53A
B19: target 2 MT 5'PFS UAG 3'PFS CCC (mixed)
RNA 1: B5 RNA 1
RNA 2: B5 RNA 2 with A27U, C28A, U29G, A52C, U54C
B20: target 2 MT 5'PFS GAA 3'PFS AGA (mixed)
RNA 1: B5 RNA 1
RNA 2: B5 RNA 2 with A27G, C28A, U29A, C53G, U54A
B21: target 2 MT 5'PFS GAA 3'PFS AGC (mixed)
RNA 1: B5 RNA 1
RNA 2: B5 RNA 2 with A27G, C28A, U29A, C53G, U54C
B22: target 2 MT 5'PFS UCA 3'PFS CUU (mixed)
RNA 1: B5 RNA 1
RNA 2: B5 RNA 2 with A27U, U29A, A52C, C53U
B23: target 2 MT 5'PFS UCG 3'PFS CCG (mixed)
RNA 1: B5 RNA 1
RNA 2: B5 RNA 2 with A27U, U29G, A52C, U54G
B24: target 2 MT 5'PFS GAA 3'PFS AGG (mixed)
RNA 1: B5 RNA 1
RNA 2: B5 RNA 2 with A27G, C28A, U29A, C53G, U54G
B25: target 2 MT 5'PFS AAU 3'PFS CAC (mixed)
RNA 1: B5 RNA 1
RNA 2: B5 RNA 2 with C28A, A52C, C53A, U54C
B26: target 2 MT 5'PFS GUU 3'PFS CCG (mixed)
RNA 1: B5 RNA 1
RNA 2: B5 RNA 2 with A27G, C28U, A52C, U54G
B27: target 2 MT 5'PFS GGG 3'PFS UCG (mixed)
RNA 1: B5 RNA 1
RNA 2: B5 RNA 2 with A27G, C28G, U29G, A52U, U54G
B28: target 2 MT 5'PFS AGC 3'PFS CCG (mixed)
RNA 1: B5 RNA 1
RNA 2: B5 RNA 2 with C28G, U29C, A52C, U54G
B29: target 2 MT 5'PFS GGG 3'PFS UCU (mixed)
RNA 1: B5 RNA 1
RNA 2: B5 RNA 2 with A27G, C28G, U29G, A52U
B30: target 2 MT 5'PFS AUU 3'PFS UCG (mixed)
RNA 1: B5 RNA 1
RNA 2: B5 RNA 2 with C28U, A52U, U54G
B31: target 2 MT 5'PFS GAA 3'PFS CAA (mixed)
RNA 1: B5 RNA 1
RNA 2: B5 RNA 2 with A27G, C28A, U29A, A52C, C53A, U54A
B32: target 2 MT 5'PFS CAG 3'PFS ACA (mixed)
RNA 1: B5 RNA 1
RNA 2: B5 RNA 2 with A27C, C28A, U29G, U54A
B33: target 2 MT 5'PFS CCG 3'PFS CCU (mixed)
RNA 1: B5 RNA 1
RNA 2: B5 RNA 2 with A27C, U29G, A52C
B34: target 2 MT 5'PFS AAU 3'PFS CAU (mixed)
RNA 1: B5 RNA 1
RNA 2: B5 RNA 2 with C28A, A52C, C53A
B35: target 2 MT 5'PFS AUU 3'PFS UCA (mixed)
RNA 1: B5 RNA 1
RNA 2: B5 RNA 2 with C28U, A52U, U54A
B36: target 2 MT 5'PFS AAA 3'PFS UUA (mixed)
RNA 1: B5 RNA 1
RNA 2: B5 RNA 2 with C28A, U29A, A52U, C53U, U54A
B37: target 2 MT 5'PFS AAU 3'PFS CAA (mixed)
RNA 1: B5 RNA 1
RNA 2: B5 RNA 2 with C28A, A52C, C53A, U54A
B38: target 2 MT 5'PFS AAU 3'PFS ACA (mixed)
RNA 1: B5 RNA 1
RNA 2: B5 RNA 2 with C28A, U54A

biological target: T1, EsCas13d, nuclease-dead; assay: crRNA (strand 1, pre-loaded); Mg2+; 40 mM Tris-HCl pH 7.5, 150 mM NaCl, 6 mM MgCl2, 1 mM DTT, 0.1% Tween-20, 0.2 mg/ml BSA; 25 C; 10 min per concentration, then washed; conditions: tags: His6-TwinStrep-SUMO cleaved; N-terminal SNAP kept (SNAP-Surface 488); label: 3' end held by stalled T7 RNA polymerase

Binder	Kd [nM]
B1	10.6 ± 0.5
B2	7.3 ± 0.4
B3	38 ± 6
B4	10.9 ± 0.5
B5	7.3 ± 1.3
B6	78 ± 32
B7	3.1 ± 0.5
B8	52 ± 14
B9	9 ± 1.4
B10	4.1 ± 0.6
B11	8.6 ± 1.7
B12	7 ± 1.5
B13	14.4 ± 3
B14	11.3 ± 1.5
B15	23 ± 10
B16	6.9 ± 0.9
B17	~90
B18	7.6 ± 0.8
B19	24 ± 9

Binder	Kd [nM]
B20	5.4 ± 0.9
B21	6.3 ± 1.1
B22	5 ± 0.9
B23	90 ± 40
B24	6.9 ± 0.7
B25	5.2 ± 1
B26	14.3 ± 1.2
B27	11.5 ± 0.8
B28	9.3 ± 1
B29	12.1 ± 0.8
B30	7.8 ± 0.7
B31	4.9 ± 0.7
B32	5.3 ± 2.1
B33	8.4 ± 1.6
B34	3 ± 0.6
B35	7 ± 0.8
B36	5.6 ± 1.5
B37	4.3 ± 0.7
B38	7.5 ± 1.3
